For 4 molecules, binding result and Kd results are on record in article PMC7221254.

In data set [1] the target is T1, PrfA A218G (Listeria monocytogenes, UniProt P22262 1-237, A218G). The experiment in a line: crystal structure; PDB probably one of 6QWF/6QWH/6QWK/6QWM; assignment not in material. The settings on record: protein: recombinant; tags: His6 removed by TEV, leaves N-terminal GA; chain copies: 2; blunt.
Data set [2] addresses T2, PrfA L140F (Listeria monocytogenes, UniProt P22262 1-237, L140F). The data set is described as above. The settings on record: protein: recombinant; tags: His6 removed by TEV, leaves N-terminal GA; chain copies: 2; blunt.
For data set [3], the target named is T3, PrfA L140H (Listeria monocytogenes, UniProt P22262 1-237, L140H). The data set is described as above. The following applies: protein: recombinant; tags: His6 removed by TEV, leaves N-terminal GA; chain copies: 2; blunt.
The target in a further data set is PrfA WT (Listeria monocytogenes, UniProt P22262 1-237). Nature of the data set: SPR. The settings on record: protein: recombinant; tags: His6-TEV vector pET His1a; chain copies: 2; label: 5'-biotin on strand 1; blunt.
Data set [4] addresses T1, PrfA A218G. Nature of the data set: SPR. The settings on record: protein: recombinant; tags: His6 removed by TEV, leaves N-terminal GA; chain copies: 2; label: 5'-biotin on strand 1; blunt.
In data set [5] the target is T2, PrfA L140F. The experiment in a line: SPR. The following applies: protein: recombinant; tags: His6 removed by TEV, leaves N-terminal GA; chain copies: 2; label: 5'-biotin on strand 1; blunt.
The target of data set [6] is T3, PrfA L140H. The experiment in a line: SPR. The following applies: protein: recombinant; tags: His6 removed by TEV, leaves N-terminal GA; chain copies: 2; label: 5'-biotin on strand 1; blunt.

B1: hly PrfA box 30 bp (dsDNA)
DNA 1: TTGAGGCATTAACATTTGTTAACGACGATA
DNA 2: TATCGTCGTTAACAAATGTTAATGCCTCAA
Take B1: the binding result with PrfA A218G [1], with PrfA L140F [2] and with PrfA L140H [3] was “binds” in each case.

B2: hpt promoter 40 bp (dsDNA)
DNA 1: TTTTGTTTTCTGCATGATAACAAGTGTTAATGACGGAAAG
DNA 2: CTTTCCGTCATTAACACTTGTTATCATGCAGAAAACAAAA
One may read the Kd as the concentration at which binding is half-saturated. Take B2: the Kd was 1040 nM in the data set with PrfA WT, 55 nM with PrfA A218G [4], 270 nM with PrfA L140F [5] and 210 nM with PrfA L140H [6].

B3: actA promoter 40 bp (dsDNA)
DNA 1: AGTTGGGGTTAACTGATTAACAAATGTTAGAGAAAAATTA
DNA 2: TAATTTTTCTCTAACATTTGTTAATCAGTTAACCCCAACT
With B3, the Kd with PrfA WT was 690 nM; with PrfA A218G [4], 27 nM; in the data set with PrfA L140F [5], 95 nM; with PrfA L140H [6], 85 nM.

B4: hly promoter 40 bp (dsDNA)
DNA 1: CTTTTATGTTGAGGCATTAACATTTGTTAACGACGATAAA
DNA 2: TTTATCGTCGTTAACAAATGTTAATGCCTCAACATAAAAG
Take B4: the Kd was 110 nM with PrfA WT, 4 nM in the data set with PrfA A218G [4], 15 nM with PrfA L140F [5] and 10 nM with PrfA L140H [6].
